Results published in the supplement of paper PMC9112550, “Optimization of the antimicrobial peptide Bac7 by deep mutational scanning” (BMC Biology, 2022).

Test system: Escherichia coli TOP10
Experiment: shrunken log2 fold change of peptide-encoding DNA abundance (4.5 h post-induction vs induction); higher = less antimicrobial activity (less host growth inhibition)
Settings: time post-induction: 4.5 h; library: site-saturation at positions 5, 18, 19, 20
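Note: peptides expressed intracellularly from a pBAD plasmid library in pooled LB shake-flask culture, induced with 0.3% L-arabinose, DNA abundance read by NGS, three biological replicates, DESeq2 with apeglm shrinkage.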

Sequence | shrunken log2 fold change
RRIRNRPPRLPRPRPRPQFNPRP | -0.0424
RRIRNRPPRLPRPRPRPQFYPRP | -0.475
RRIRNRPPRLPRPRPRPQHLPRP | -0.517
RRIRNRPPRLPRPRPRPQHPPRP | -0.325
RRIRNRPPRLPRPRPRPQIDPRP | -0.0557
RRIRNRPPRLPRPRPRPQIFPRP | -0.27
RRIRNRPPRLPRPRPRPQIHPRP | -0.364
RRIRNRPPRLPRPRPRPQLDPRP | 0.112
RRIRNRPPRLPRPRPRPQMHPRP | -0.108
RRIRNRPPRLPRPRPRPQNLPRP | -0.266
RRIRNRPPRLPRPRPRPQNVPRP | -0.0764
RRIRNRPPRLPRPRPRPQPAPRP | 0.0618
RRIRNRPPRLPRPRPRPQPCPRP | 0.0582
RRIRNRPPRLPRPRPRPQPPPRP | 0.833
RRIRNRPPRLPRPRPRPQPVPRP | 0.0704
RRIRNRPPRLPRPRPRPQQAPRP | -0.356
RRIRNRPPRLPRPRPRPQRMPRP | 0.0535
RRIRNRPPRLPRPRPRPQSCPRP | -0.00689
RRIRNRPPRLPRPRPRPQSLPRP | -0.139
RRIRNRPPRLPRPRPRPQSNPRP | -0.428
RRIRNRPPRLPRPRPRPQSPPRP | -0.0298
RRIRNRPPRLPRPRPRPQYFPRP | -0.00973
RRIRNRPPRLPRPRPRPQYIPRP | -0.0546
RRIRNRPPRLPRPRPRPQYNPRP | -0.674
RRIRNRPPRLPRPRPRPQYYPRP | -0.128

Sequence | shrunken log2 fold change
RRIRNRPPRLPRPRPRPRDCPRP | 0.0442
RRIRNRPPRLPRPRPRPRDNPRP | 0.104
RRIRNRPPRLPRPRPRPRDPPRP | 0.457
RRIRNRPPRLPRPRPRPRERPRP | 0.0512
RRIRNRPPRLPRPRPRPRFCPRP | 0.254
RRIRNRPPRLPRPRPRPRFEPRP | 0.108
RRIRNRPPRLPRPRPRPRGMPRP | 0.151
RRIRNRPPRLPRPRPRPRGTPRP | 0.224
RRIRNRPPRLPRPRPRPRGWPRP | 0.962
RRIRNRPPRLPRPRPRPRKQPRP | 0.215
RRIRNRPPRLPRPRPRPRLNPRP | -0.212
RRIRNRPPRLPRPRPRPRMPPRP | -0.0444
RRIRNRPPRLPRPRPRPRNGPRP | -0.0619
RRIRNRPPRLPRPRPRPRPFPRP | 0.472
RRIRNRPPRLPRPRPRPRPYPRP | -0.25
RRIRNRPPRLPRPRPRPRRIPRP | 0.0821
RRIRNRPPRLPRPRPRPRRKPRP | 0.0625
RRIRNRPPRLPRPRPRPRTLPRP | -0.0666
RRIRNRPPRLPRPRPRPRTNPRP | -0.166
RRIRNRPPRLPRPRPRPRTSPRP | -0.0838
RRIRNRPPRLPRPRPRPRVIPRP | -0.21
RRIRNRPPRLPRPRPRPRYGPRP | -0.0289
RRIRNRPPRLPRPRPRPRYKPRP | -0.566
RRIRNRPPRLPRPRPRPRYNPRP | -1.04
RRIRNRPPRLPRPRPRPRYWPRP | 0.0625

Sequence | shrunken log2 fold change
RRIRNRPPRLPRPRPRPRYYPRP | -0.705
RRIRNRPPRLPRPRPRPSCNPRP | -0.485
RRIRNRPPRLPRPRPRPSEQPRP | -0.288
RRIRNRPPRLPRPRPRPSFHPRP | -0.41
RRIRNRPPRLPRPRPRPSFMPRP | -1.21
RRIRNRPPRLPRPRPRPSGIPRP | -0.983
RRIRNRPPRLPRPRPRPSGYPRP | 0.00359
RRIRNRPPRLPRPRPRPSHMPRP | -0.883
RRIRNRPPRLPRPRPRPSICPRP | -0.328
RRIRNRPPRLPRPRPRPSILPRP | -0.151
RRIRNRPPRLPRPRPRPSIMPRP | -0.611
RRIRNRPPRLPRPRPRPSITPRP | -0.656
RRIRNRPPRLPRPRPRPSKNPRP | -0.267
RRIRNRPPRLPRPRPRPSLDPRP | -0.258
RRIRNRPPRLPRPRPRPSLIPRP | -0.138
RRIRNRPPRLPRPRPRPSMIPRP | -0.427
RRIRNRPPRLPRPRPRPSNDPRP | -0.349
RRIRNRPPRLPRPRPRPSPYPRP | -0.507
RRIRNRPPRLPRPRPRPSQKPRP | -0.0723
RRIRNRPPRLPRPRPRPSSLPRP | -0.333
RRIRNRPPRLPRPRPRPSSQPRP | -0.208
RRIRNRPPRLPRPRPRPSVKPRP | -0.195
RRIRNRPPRLPRPRPRPSWDPRP | 0.039
RRIRNRPPRLPRPRPRPSWPPRP | -0.0605
RRIRNRPPRLPRPRPRPSYEPRP | -0.999

Sequence | shrunken log2 fold change
RRIRNRPPRLPRPRPRPTDKPRP | 0.008
RRIRNRPPRLPRPRPRPTFHPRP | -0.422
RRIRNRPPRLPRPRPRPTGYPRP | -0.0249
RRIRNRPPRLPRPRPRPTHNPRP | -0.114
RRIRNRPPRLPRPRPRPTLGPRP | 0.3
RRIRNRPPRLPRPRPRPTMLPRP | -0.241
RRIRNRPPRLPRPRPRPTNLPRP | -0.0193
RRIRNRPPRLPRPRPRPTPCPRP | 0.043
RRIRNRPPRLPRPRPRPTPLPRP | 0.268
RRIRNRPPRLPRPRPRPTQQPRP | 0.244
RRIRNRPPRLPRPRPRPTQVPRP | 0.152
RRIRNRPPRLPRPRPRPTRSPRP | -0.177
RRIRNRPPRLPRPRPRPTSNPRP | -0.615
RRIRNRPPRLPRPRPRPTTIPRP | -0.819
RRIRNRPPRLPRPRPRPTTTPRP | 0.082
RRIRNRPPRLPRPRPRPTVAPRP | 0.351
RRIRNRPPRLPRPRPRPTVIPRP | 0.0591
RRIRNRPPRLPRPRPRPVAAPRP | 0.359
RRIRNRPPRLPRPRPRPVCKPRP | -0.0239
RRIRNRPPRLPRPRPRPVCNPRP | -0.222
RRIRNRPPRLPRPRPRPVEFPRP | -0.00441
RRIRNRPPRLPRPRPRPVESPRP | -0.165
RRIRNRPPRLPRPRPRPVFMPRP | -0.181
RRIRNRPPRLPRPRPRPVFTPRP | -0.349
RRIRNRPPRLPRPRPRPVHCPRP | -0.123

Sequence | shrunken log2 fold change
RRIRNRPPRLPRPRPRPVITPRP | -0.662
RRIRNRPPRLPRPRPRPVKIPRP | 0.0539
RRIRNRPPRLPRPRPRPVLIPRP | -0.27
RRIRNRPPRLPRPRPRPVLPPRP | -0.11
RRIRNRPPRLPRPRPRPVLTPRP | -0.235
RRIRNRPPRLPRPRPRPVMDPRP | 0.0106
RRIRNRPPRLPRPRPRPVNNPRP | -0.647
RRIRNRPPRLPRPRPRPVNQPRP | 0.214
RRIRNRPPRLPRPRPRPVPDPRP | -0.0278
RRIRNRPPRLPRPRPRPVPMPRP | -0.0134
RRIRNRPPRLPRPRPRPVQCPRP | -0.0226
RRIRNRPPRLPRPRPRPVQPPRP | 0.0494
RRIRNRPPRLPRPRPRPVTFPRP | -0.356
RRIRNRPPRLPRPRPRPVTSPRP | -0.469
RRIRNRPPRLPRPRPRPVVIPRP | -0.077
RRIRNRPPRLPRPRPRPVYIPRP | -0.434
RRIRNRPPRLPRPRPRPVYQPRP | -0.00185
RRIRNRPPRLPRPRPRPWCMPRP | -0.312
RRIRNRPPRLPRPRPRPWCRPRP | -0.525
RRIRNRPPRLPRPRPRPWDIPRP | -0.00804
RRIRNRPPRLPRPRPRPWDRPRP | -0.0515
RRIRNRPPRLPRPRPRPWFKPRP | -0.191
RRIRNRPPRLPRPRPRPWFMPRP | 0.0336
RRIRNRPPRLPRPRPRPWGAPRP | 0.0894
RRIRNRPPRLPRPRPRPWHEPRP | -0.454

Sequence | shrunken log2 fold change
RRIRNRPPRLPRPRPRPWIGPRP | -0.128
RRIRNRPPRLPRPRPRPWKNPRP | 0.175
RRIRNRPPRLPRPRPRPWMEPRP | -0.00208
RRIRNRPPRLPRPRPRPWNVPRP | 0.00489
RRIRNRPPRLPRPRPRPWPQPRP | -0.064
RRIRNRPPRLPRPRPRPWQTPRP | 0.0295
RRIRNRPPRLPRPRPRPWRFPRP | -0.0929
RRIRNRPPRLPRPRPRPWSCPRP | -0.42
RRIRNRPPRLPRPRPRPWTNPRP | -0.492
RRIRNRPPRLPRPRPRPWTQPRP | -0.0178
RRIRNRPPRLPRPRPRPWVGPRP | -0.065
RRIRNRPPRLPRPRPRPWVVPRP | 0.0152
RRIRNRPPRLPRPRPRPYATPRP | -0.145
RRIRNRPPRLPRPRPRPYCGPRP | -0.352
RRIRNRPPRLPRPRPRPYCNPRP | -0.672
RRIRNRPPRLPRPRPRPYDAPRP | -0.066
RRIRNRPPRLPRPRPRPYEFPRP | 0.121
RRIRNRPPRLPRPRPRPYFGPRP | -0.284
RRIRNRPPRLPRPRPRPYFNPRP | -1.51
RRIRNRPPRLPRPRPRPYFSPRP | -0.225
RRIRNRPPRLPRPRPRPYFVPRP | -0.312
RRIRNRPPRLPRPRPRPYGNPRP | -0.287
RRIRNRPPRLPRPRPRPYIHPRP | -0.387
RRIRNRPPRLPRPRPRPYIIPRP | -0.156
RRIRNRPPRLPRPRPRPYKVPRP | -0.324
